Data as given in the DeepSol protein solubility set.

Assay: soluble on expression in E. coli; label from the status in PepcDB or PDB records
For “MKSNPAIQAAIDLTAGAAGGTACVLTGQPFDTMKVKMQTFPDLYRGLTDCCLKTYSQVGFRGFYKGTSPALIANIAENSVLFMCYGFCQQVVRKVAGLDKQAKLSDLQNAAAGSFASAFAALVLCPTELVKCRLQTMYEMETSGKIAKSQNTVWSVIKSILRKDGPLGFYHGLSSTLLREVPGYFFFFGGYELSRSFFASGRSKDELGPVPLMLSGGVGGICLWLAVYPVDCIKSRIQVLSMSGKQAGFIRTFLNVVKNEGITALYSGLKPTMIRAFPANGALFLAYEYSRKLMMNQLEAY”, the “soluble on expression in E. coli” value was “soluble”.
In the case of “MGHHHHHHSHMLFEEAFVHLKPQVCLPLWISWAEWSEGAKSQEDTEAVFKKALLAVIGADSVTLKNKYLDWAYRSGGYKKARAVFKSLQESRPFSVDFFRKMIQFEKEQESCNMANIREYYERALREFGSADSDLWMDYMKEELNHPLGRPENCGQIYWRAMKMLQGESAEAFVAKHAMHQTGHL”, the “soluble on expression in E. coli” value is reported as “not soluble”.
For “MMSSGPLDPSDVTLFTSYPSPIVVPLEFIEEQSKSSREELEIDESGLYIMSKALEEFMRTVMRGATQNGSRLLDYDSIAEFFANSEFRALKDFFPERVRFDEIESEILPTRATGPSNSS”, the “soluble on expression in E. coli” value was “not soluble”.
For “MKTDVRWATFNIRYDNPQDSLNNWQYRKDRVCQFIKDHELDIVGMQEVLHNQFQDLRAGLPEYDGIGVGRDDGKTAGEYAPLFYRKDKYEVLDSNTFWLAENPDSVGMMGWDAVCVRIATWAKFKDKATGKIFMAVNTHFDHVGEEARRQSALLIIRKIKEIVGERPAVVTGDFNVTDASDAYETITTNEFVMKDAYKTAARVTGVDYTFHDFARIPAEDCEKIDFIFVTPQVLVKSCEIPAEVPEALLSDHNPQLADLELEHHHHHH”, the “soluble on expression in E. coli” value was “soluble”.
For “MAAGTFTAQNKVRPGVYINFKSEPQAAGTLGERGIVSMPLILSWGEPGKMITIEAGDDVFPKLGYSIMDAQLRLINEALKRAKTLLLYRLNAGTKAAVTVGNLTVTAKWGGARGNDITLVIQENIDDETKFDVSTLVDGAELDKQTVSDIAGLAANDWVIFSGTGALTETAGAPLINGSDGAVTNQAYIDYLAAVEIFDFNTIALPSTDDALKATFTAFAKRLRDDEGKKIQVVLENYPAADYEGVISVKNGVVLADGTILTAAQATAWVAGATAGARVNESLTYQGYDEAVDVAPRYTNAQIIAALQAGEFLFTASDNQALVEQDINTLTSFTADKGKQFAKNRVIRVLDGINNDFVRIFSKFYIGKVSNNADGRNLLKSECINYMNTLQDIDAIKNFDGQTDLTVQSGNDVDAVYIEAYAWPVDSIEKIYVRVRIKLEHHHHHH”, the “soluble on expression in E. coli” value was “soluble”.
For “MEDLLVVGQIINTHGLRGEMKVMPLTEDMRRFDYLEYVILKGKKVKVEGVKYFKDKVILKLEGINSIEEAEKLKRTYLEIEREDAIELEEDEYFIVDLVGCTVVDTEGFEYGKIKDVIQTPSNDVYWVQGKKEVLVPVLKDIVLDINMDEKLITIRPSGEWQYEDLEHHHHHH”, the “soluble on expression in E. coli” value was “not soluble”.
In the case of “MAHHHHHHMGTLEAQTQGPGSMKLAINGFGRIGRNVFKIAFERGIDIVAINDLTDPKTLAHLLKYDSTFGVYNKKVESRDGAIVVDGREIKIIAERDPKNLPWAKLGIDVVIESTGVFSSATSDKGGYLDHVNHAGAKKVILTVPAKDEIKTIVLGVNDHDINSDLKAVSNASCTTNCLAPLAKVLHESFGIEQGLMTTVHAYTNDQRILDLPHSDLRRARAAALSIIPTSTGAAKAVGLVLPELKGKLNGTSMRVPVPTGSIVDLTVQLKKKDVTKEEINSVLRKASETPELKGILGYTEDPIVSSDIKGNSHSSIVDGLETMVLENGFAKILSWYDNEFGYSTRVVDLAQKLVK”, the “soluble on expression in E. coli” value is reported as “soluble”.
For “MGESGLFDTPDQKVGLTGRPLREFPEPEPLHKHGPAKIISMCNQKGGVGKTTSTINLGACLAEAGRKVLLVDLDPQGALSAGLNIPHEELEITVYNLLVDRHTSIHQAIHHTSVDGLDLVPANIDLSAAEIQLVNEVGREQTLARALRPVMRDYDFIILDCQPSLGLLTVNALTCSHGVIIPMECEYFSLRGLALLTDTVEKVRDRLNFDLEIVGILVTMFDRRTTHAREVMSRVVEVFEDRVFDTVITRTVRFPETSVAGEPITTWAPSSQGAQQYRQLAREVIERTA”, the “soluble on expression in E. coli” value was “not soluble”.
In the case of “MRPSAPAISRQTLLDEPRPGSLTIGYEPSEEAQPTENPPRFSWLPDIDDGARYVLRISTDPGFTDKKTLVFEDLAWNFFTPDEALPDGHYHWCYALWDQKSATAHSNWSTVRSFEISEALPKTPLPGRSARHAAAQTSHPRLWLNSEQLSAFADAVAKDPNHCGWAEFYEKSVEPWLERPVMPEPQPYPNNTRVATLWRQMYIDCQEVIYAIRHLAIAGRVLGRDDLLDASRKWLLAVAAWDTKGATSRAYNDEAGFRVVVALAWGYDWLYDHLSEDERRTVRSVLLERTREVADHVIAHARIHVFPYDSHAVRSLSAVLTPACIALQGESDEAGEWLDYTVEFLATLYSPWAGTDGGWAEGPHYWMTGMAYLIEAANLIRSYIGYDLYQRPFFQNTGRFPLYTKAPGTRRANFGDDSTLGDLPGLKLGYNVRQFAGVTGNGHYQWYFDHIKADATGTEMAFYNYGWWDLNFDDLVYRHDYPQVEAVSPADLPALAVFDDIGWATIQKDMEDPDRHLQFVFKSSPYGSLSHSHGDQNAFVLYAHGEDLAIQSGYYVAFNSQMHLNWRRQTRSKNAVLIGGKGQYAEKDKALARRAAGRIVSVEEQPGHVRIVGDATAAYQVANPLVQKVLRETHFVNDSYFVIVDEVECSEPQELQWLCHTLGAPQTGRSSFRYNGRKAGFYGQFVYSSGGTPQISAVEGFPDIDPKEFEGLDIHHHVCATVPAATRHRLVTLLVPYSLKEPKRIFSFIDDQGFSTDIYFSDVDDERFKLSLPKQF”, the “soluble on expression in E. coli” value is reported as “soluble”.
With “MTSMATPHVAGIAALLLQAHPSWTPDKVKTALIETADIVKPDEIADIAYGAGRVNAYKAINYDNYAKLVFTGYVANKGSQTHQFVISGASFVTATLYWDNANSDLDLYLYDPNGNQVDYSYTAYYGFEKVGYYNPTDGTWTIKVVSYSGSANYQVDVVSDGSLSQPGSSPSPQPEPTVDAKTFQGLEHHHHHH” the “soluble on expression in E. coli” value was “soluble”.
For “MSLTVNISYLTDMDGVLIKEGEIIPGADRFLQSLTDNNVEFMVLTNNSIFTPRDLSARLKTSGLEIPPERIWTSATATAHFLKSQVKEGTAYVVGESGLTTALHTAGWILTDANPEFVVLGETRTYSFEAITTAINLILGGARFICTNPDVTGPSPSGILPATGSVAALITAATGAEPYYIGKPNPVMMRSALNTIGAHSEHTVMIGDRMDTDVKSGLEAGLSTVLVRSGISDDAEIRRYPFRPTHVINSIADLADEGHHHHHH”, the “soluble on expression in E. coli” value was “soluble”.
For “MAGSATVEKRLDFGLLGPLQMTIDGTPVPSGTPKQRAVLAMLVINRNRPVGVDALITALWEEWPPSGARASIHSYVSNLRKLLGGAGIDPRVVLAAAPPGYRLSIPDNTCDLGRFVAEKTAGVHAAAAGRFEQASRHLSAALREWRGPVLDDLRDFQFVEPFATALVEDKVLAHTAKAEAEIACGRASAVIAELEALTFEHPYREPLWTQLITAYYLSDRQSDALGAYRRVKTTLADDLGIDPGPTLRALNERILRQQPLDAKKSAKTTAAGTVTVLDQRTMASGQQAVAYLHDIASGRGYPLQAAATRIGRLHDNDIVLDSANVSRHHAVIVDTGTNYVINDLRSSNGVHVQHERIRSAVTLNDGDHIRICDHEFTFQISAGTHGGT”, the “soluble on expression in E. coli” value was “soluble”.
In the case of “MKVTDVRLRKIQTDGRMKALVSITLDEAFVIHDLRVIEGNSGLFVAMPSKRTPDGEFRDIAHPINSDMRQEIQDAVMKVYDETDEVIPDKNATSDNEESDEA”, the “soluble on expression in E. coli” value is reported as “soluble”.
For “RSFGLRASLVDALRKGKIQVAYQPLRVLDSGRMAGVEALARWTYDEVGPISPVTFLGWVEAMGLRQPFTRYIVQAALDGMKTRMAGDAPFYLSINVFPEDLEDESFLDFLTQSVRERELSPGSVVLEVTESAVFSTASPSVLFRRFRAAGFRIFLDDFGVGYSNLGNIIRWEVDGIKLDRIFMQSLGDFDSAAPVLDQVIEMARQLDLHLVIEGIEVRSQADYIFKRAPHAVGQGWLFGRPGPACALPAA”, the “soluble on expression in E. coli” value was “not soluble”.
In the case of “MQSVDVAIVGGGMVGLAVACGLQGSGLRVAVLEQRVQEPLAANAPPQLRVSAINAASEKLLTRLGVWQDILSRRASCYHGMEVWDKDSFGHISFDDQSMGYSHLGHIVENSVIHYALWNKAHQSSDITLLAPAELQQVAWGENETFLTLKDGSMLTARLVIGADGANSWLRNKADIPLTFWDYQHHALVATIRTEEPHDAVARQVFHGEGILAFLPLSDPHLCSIVWSLSPEEAQRMQQASEDEFNRALNIAFDNRLGLCKVESARQVFPLTGRYARQFASHRLALVGDAAHTIHPLAGQGVNLGFMDAAELIAELKRLHRQGKDIGQYIYLRRYERSRKHSAALMLAGMQGFRDLFSGTNPAKKLLRDIGLKLADTLPGVKPQLIRQAMGLNDLPEWLRLEHHHHHH”, the “soluble on expression in E. coli” value is reported as “not soluble”.
In the case of “MAHHHHHHMVAPSGRTGRRTTRRRTLHTGAGTTVTQRSARLPSRLRRVSTLKTSRAPSCLSTSARLRLFRRRRTCWRCWSERASPYQSSATTPSSPPETAVCAWCRTALRTSSSRAPPWRYLACPSSPTAACAMPARAMWSLSSTTRTTARFASRPPTAICRTATTAPTSRATARTRKPSRTSTLTPRHASCTAASTARAASASTSTRRTSTSARLAAAGARFPPFMNWRRRTTICPFLSYAPSGSCTWAMQTRTTTCASSRLRGQRR”, the “soluble on expression in E. coli” value is reported as “soluble”.
In the case of “MTEILQTLKEYIPISLEEMSGIKLMNRTDTKYVTSYQILKEILLAAGHDYRVQEVNGEYNIAYHTIYLDTADRDMYLTHQNGRVVREKIRIRTYVDSDLTFLEVKNKNNKGRTDKKRIRIGSIDTIKEDGGEAFLRQHAWYEQSQLLPLLENSFRRITLVNKHKTERLTIDTGVTFCCLQSGKISSLDNIVIIELKRDGHNSSPIKEILRKLHIQSSGFSKYCIGSALTVSHLKCNRLKPKLRMLNKMGVYLEHHHHHH”, the “soluble on expression in E. coli” value is reported as “soluble”.
With “LSGLTRPQEGTDEVTDAHASACLAALERGFDAEWGGFGGEPKFPRPAVLSFLFSHAVATGNRHALDMALLTLRKMAAGGIHDHLGVAGLGGGGFARYSTDRFWHVPHFEKMLYDNAQLAASYLEAYQASGDELFANTARDIFHYVLCDMTSPEGAFWSAEDADSLDPYGSGEKREGAFYLWTEQEITGLLDPEEATLFIATYGIRSDGNAPFDPHGEFTGKNILIRTMSDNELAGTFEIPIETVGKRLNSARKKLFEARKKRPRPGLDDKILTSWNGLMLSALAKGSLVLGDTTLLEAAERAARFILDTLCDSKSGKLLRRYRDGQAAIEGKAADYACLILGLLDLYSASFDSDWLRAAIKLAEAQIERFFDQEAGVFYSTAVEDHSVPLR” the “soluble on expression in E. coli” value was “not soluble”.
For “EVKLLESGGGLAQPGGSLKLSCAASGFDFRRYWMTWVRQAPGKGLEWIGEINPDSRTINYMPSLKDKFIISRDNAKNSLYLQLSRLRSEDSALYYCVRLDFDVYNHYYVLDYWGQGTSVTVSSASTKGPSVFPLAPSSKSTSGGTAALGCLVKDYFPEPVTVSWNSGALTSGVHTFPAVLQSSGLYSLSSVVTVPSSSLGTQTYICNVNHKPSNTKVDKKVEPKSCD”, the “soluble on expression in E. coli” value was “soluble”.
In the case of “NTRGMALFADGGIVGTKPYAASGSYIKKMSDYCKGCHYDNKARSGEGSCPFNSLYWRFMDKHEKRLATNPRIGMIFRSWDNMEASQRQAILDT”, the “soluble on expression in E. coli” value is reported as “not soluble”.
